The values below come from PMC12442389.

Experiment [1] deals with CW7_Lyz2 (amino acids 142 to 473, two cpl-7 motifs and the glucosaminidase domain of PlyCYU) (Streptococcus suis (prophage λSa2%2C)). The experiment in a line: SEC-MALS; Superdex 200 Increase 5/150 GL; 20 mM sodium phosphate, pH 7.0, 150 mM NaCl; 10 µL injected at 10 mg/mL; 0.2 mL/min; self-association, oligomeric number from mass over subunit mass. For orientation: Size exclusion chromatography separates by hydrodynamic size, large species first.

For experiment [2] the target is unchanged. Nature of the experiment: SEC; SEC-UV; Superdex 200 Increase 10/300 GL; 50 mM phosphate buffer, pH 7.5, 150 mM NaCl; 0.1-0.4 mg/mL protein; 0.5 mL/min; mass from a calibration curve of standard proteins; PlyCYU214 also with 500 mM NaCl; self-association.
The target in experiment [3] is cyuLyz2 (amino acids 266 to 473, glucosaminidase domain of PlyCYU) (Streptococcus suis (prophage λSa2%2C)). Nature of the experiment: SEC-MALS; Superdex 200 Increase 5/150 GL; 20 mM sodium phosphate, pH 7.0, 150 mM NaCl; 10 µL injected at 10 mg/mL; 0.2 mL/min; self-association, oligomeric number from mass over subunit mass.
For experiment [4] the target is unchanged. The experiment in a line: SEC; SEC-UV; Superdex 200 Increase 10/300 GL; 50 mM phosphate buffer, pH 7.5, 150 mM NaCl; 0.1-0.4 mg/mL protein; 0.5 mL/min; mass from a calibration curve of standard proteins; PlyCYU214 also with 500 mM NaCl; self-association.
In experiment [5] the target is His6-tagged PlyCYU endolysin (full-length) (Streptococcus suis (prophage λSa2%2C)). Nature of the experiment: SEC-MALS; Superdex 200 Increase 5/150 GL; 20 mM sodium phosphate, pH 7.0, 150 mM NaCl; 10 µL injected at 10 mg/mL; 0.2 mL/min; self-association, oligomeric number from mass over subunit mass.
Experiment [6] has the same target. The experiment in a line: SEC; SEC-UV; Superdex 200 Increase 10/300 GL; 50 mM phosphate buffer, pH 7.5, 150 mM NaCl; 0.1-0.4 mg/mL protein; 0.5 mL/min; mass from a calibration curve of standard proteins; PlyCYU214 also with 500 mM NaCl; self-association.

For orientation: stoichiometry N means the number of molecules, sites or subunits per partner or assembly. Consider “CW7_Lyz2 (amino acids 142 to 473, two cpl-7 motifs and the glucosaminidase domain of PlyCYU) (domain or fragment)”, for which the figures for the stoichiometry N in experiment [1] and in experiment [2] were 4.4 and 11.8, respectively.
Consider “cyuLyz2 (amino acids 266 to 473, glucosaminidase domain of PlyCYU) (domain or fragment)”, for which the stoichiometry N stood at 3.9 in experiment [3] and 6.9 in experiment [4].
Take “His6-tagged PlyCYU endolysin (full-length) (enzyme)”: the figures for the stoichiometry N in experiment [5] and in experiment [6] were 5.2 and 6.8, respectively.
